The source of these data is article PMC8618838.

The assay has as its target wt HBc capsid like particles (Hepatitis B virus core protein) (Human Hepatitis B virus) (UniProt P03147). Nature of the assay: cryo-EM structure.

The substance “wt HBc capsid like particles (Hepatitis B virus core protein) (from UniProt P03147) (natural protein)” showed a stoichiometry N of 240.

As usually defined, the stoichiometry N is the number of molecules, sites or subunits per partner or assembly.
